Laboratory results taken from US20180099057.

T1: oligopeptide sequence GNWPWDWGWDWPWNWG (SEQ ID NO:8) tethering TCPP to the nanoparticle
T1 sequence: GNWPWDWGWDWPWNWG

T2: oligopeptide sequence GNwPwDwGwDwPwNwG (SEQ ID NO:9) tethering TCPP to the nanoparticle
T2 sequence: GNWPWDWGWDWPWNWG

T3: Cyanine 5.5 linked GR7G peptide (SEQ ID NO:5) on nanoplatform 1 / nanoplatform 2
T3 sequence: GRRRRRRRG

T4: oligopeptide sequence GRARQRLRARQG (SEQ ID NO:7) tethering TCPP to the nanoparticle
T4 sequence: GRARQRLRARQG

T5: oligopeptide sequence GRRRRRRRG (SEQ ID NO:5) tethering TCPP to the nanoparticle
T5 sequence: GRRRRRRRG

B1: arginase II (enzyme, UniProt P78540 23-354, looked up, species assumed)
Arginase-2, mitochondrial: VHSVAVIGAPFSQGQKRKGVEHGPAAIREAGLMKRLSSLGCHLKDFGDLSFTPVPKDDLYNNLIVNPRSVGLANQELAEVVSRAVSDGYSCVTLGGDHSLAIGTISGHARHCPDLCVVWVDAHADINTPLTTSSGNLHGQPVSFLLRELQDKVPQLPGFSWIKPCISSASIVYIGLRDVDPPEHFILKNYDIQYFSMRDIDRLGIQKVMERTFDLLIGKRQRPIHLSFDIDAFDPTLAPATGTPVVGGLTYREGMYIAEEIHNTGLLSALDLVEVNPQLATSEEEAKTTANLAVDVIASSFGQTREGGHIVYDQLPTPSSPDESENQARVRI

Legend:
[1] = tested on: T1, oligopeptide sequence GNWPWDWGWDWPWNWG (SEQ ID NO:8) tethering TCPP to the nanoparticle
[2] = tested on: T2, oligopeptide sequence GNwPwDwGwDwPwNwG (SEQ ID NO:9) tethering TCPP to the nanoparticle
[3] = tested on: T3, Cyanine 5.5 linked GR7G peptide (SEQ ID NO:5) on nanoplatform 1 / nanoplatform 2
[4] = tested on: T4, oligopeptide sequence GRARQRLRARQG (SEQ ID NO:7) tethering TCPP to the nanoparticle
[5] = tested on: T5, oligopeptide sequence GRRRRRRRG (SEQ ID NO:5) tethering TCPP to the nanoparticle

Row | Molecule | calibration of nanoplatform fluorescence after 60 min. of incubation in HEPES buffer [1] | calibration of nanoplatform fluorescence after 60 min. of incubation in HEPES buffer [2] | limit of detection, nanoplatform fluorescence after 60 min. of incubation in HEPES buffer [1] | cyanine 7.0 fluorescence (FRET) of nanoplatform 1 after 1 h of incubation at 37° C. [3] | limit of detection from the calibration curve of FIG. 13 (nanoplatform 2, printed as nanoplatform 1) [3] | limit of detection of nanoplatform 1, quotient of integrated cyanine 5.5 and cyanine 7.0 fluorescence bands [3] | limit of detection of nanoplatform 2, fluorescence increase over the whole range [3] | limit of detection, TCPP fluorescence of the nanoplatform after 60 min. of incubation in HEPES buffer [4] | limit of detection, TCPP fluorescence of the nanoplatform after 60 min. of incubation in PBS [5]
1 | tryptophan 2,3-dioxygenase | the concentration of TDO can be determined over the whole range from 10^-7 to 10^-16 M | TDO does not react with the substrate GNwPwDwGwDwPwNwG (SEQ ID NO:9), because it is specific for L-tryptophan | – | – | – | – | – | – | –
2 | indoleamine 2,3-dioxygenase 1 | – | the concentration of IDO1 can be determined over the range from 10^-7 to 10^-14 M | the LOD for IDO1 is 10^-15 M | – | – | – | – | – | –
3 | B1 | – | – | – | After incubation with arginase II, an increase in cyanine 7.0 fluorescence was observed | the LOD (limit of detection) of nanoplatform 1 is 10^-10 M | the LOD (limit of detection) of nanoplatform 1 is down to the picomolar level | its LOD is only at 10^-7 M of arginase II concentration | The limit of detection is estimated to 2×10^-16M arginase II | The limit of detection is 10^-15 M arginase II
